Drawing on publication PMC9814641, “Microbial rhodoquinone biosynthesis proceeds via an atypical RquA-catalyzed amino transfer from S-adenosyl-L-methionine to ubiquinone” (Communications Chemistry, 2022), this text covers Kd, stoichiometry N and Km for 3 molecules.

The target in data set [1] is T1, RquA (Rhodospirillum rubrum, UniProt Q2RPC3).
T1 construct: gene Rru_A3227
As to the kind of experiment: intrinsic tryptophan fluorescence titration, one-site fit; also Michaelis-Menten kinetics (apparent Km […] with UQ3 and Mn2+). The data set is classed as binding.

The target in data set [2] is RquA (TEV-cleaved from MBP-RquA) (R. rubrum). The data set is described as follows: SEC; calibrated HiLoad 16/60 Superdex 200; TRIS (20 mM), NaCl (200 mM), TCEP (1 mM), 0.1% Brij-35, pH 8.0; mass estimated from the elution volume.
Substrate in data set [3]: COC1=C(OC)C(=O)C(C/C=C(\C)CC/C=C(\C)CCC=C(C)C)=C(C)C1=O
As to the kind of experiment: LC-MS enzyme assay of conversion to RQ3, Michaelis-Menten kinetics (apparent Km). The class given is biochemical, Rhodospirillum rubrum. To be noted: Mn2+; SAM (co-substrate).

In the case of `C[S+](CC[C@H](N)C(=O)[O-])C[C@H]1O[C@@H](n2cnc3c(N)ncnc32)[C@H](O)[C@@H]1O` (stereo partly drawn) [compound 3, S-adenosyl-L-methionine], the Kd in data set [1] was 2.22 ± 1.02 mM.

For “RquA (TEV-cleaved from MBP-RquA) (enzyme)”, in data set [2], the stoichiometry N is 2.

B1: RquA (Rhodospirillum rubrum ATCC 11170) (protein)
chain: MTKHQGAVRPVGPEESAFPASQSFSETGPVVADPIKPLPAYLQETYTWAYLDPRNVEWLDHEIVVNAILWGNMTRLMATAFKEFEPGQEVLQPACVYGPFSRHLAERLGPEGYLEVHDVAPVQIHHTRRKVEGLPQVTLRRADAADPLDRDFDGVCCFFLLHEVPDHVKSKIVDNMLSAVRPGGKVVFVDYHRYAALHPLRPIMAFVFRTLEPFAWGLCTREISDFASDAGSFTWRKETYFGGLYQKVVAERRA
notes: MBP-RquA
For the molecule B1, the Km in data set [3] is reported as 0.155 ± 0.028 µM.
